{
  "source": "the supplement of paper PMC6379048",
  "experiment_in_all_cases": "EC50 of free RNA motif oligo competing protein binding to immobilised probe",
  "key": {"ZGPAT": {"molecular_target": "T1, ZGPAT (UniProt Q8N5A5)", "T1 sequence": "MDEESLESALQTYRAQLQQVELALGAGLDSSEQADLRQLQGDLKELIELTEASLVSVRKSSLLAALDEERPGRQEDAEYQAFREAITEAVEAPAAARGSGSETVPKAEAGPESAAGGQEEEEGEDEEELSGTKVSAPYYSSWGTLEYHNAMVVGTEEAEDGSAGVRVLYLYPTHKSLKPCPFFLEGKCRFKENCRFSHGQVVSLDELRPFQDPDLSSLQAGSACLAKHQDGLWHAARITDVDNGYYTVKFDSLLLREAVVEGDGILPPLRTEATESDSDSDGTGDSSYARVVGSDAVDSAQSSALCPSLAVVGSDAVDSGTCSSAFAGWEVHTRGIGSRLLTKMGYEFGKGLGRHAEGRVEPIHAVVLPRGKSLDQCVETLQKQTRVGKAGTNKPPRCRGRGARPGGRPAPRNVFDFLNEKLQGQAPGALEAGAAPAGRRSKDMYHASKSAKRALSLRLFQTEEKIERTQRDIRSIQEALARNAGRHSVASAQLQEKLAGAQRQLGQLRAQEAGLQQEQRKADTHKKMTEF", "procedure,_shortened": "(§1)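 To obtain EC50, data were fitted with a four-parameter log-logistic model; Kd was then EC50 multiplied by a protein-dependent depletion factor. Beforehand, free RNA oligos (0 nM to 30 μM) were pre-incubated with HEK293-FT lysate (2.5 mg protein/well) for 1 h at 4°C. The lysate then spent 30 min at 4°C with the same 5′-amino-C6 oligos coupled to NHS-Sepharose beads, and bound proteins were quantified by label-free LC-MS/MS, normalised to the control.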"}, "NONO": {"molecular_target": "T2, NONO (UniProt Q15233)", "T2 sequence": "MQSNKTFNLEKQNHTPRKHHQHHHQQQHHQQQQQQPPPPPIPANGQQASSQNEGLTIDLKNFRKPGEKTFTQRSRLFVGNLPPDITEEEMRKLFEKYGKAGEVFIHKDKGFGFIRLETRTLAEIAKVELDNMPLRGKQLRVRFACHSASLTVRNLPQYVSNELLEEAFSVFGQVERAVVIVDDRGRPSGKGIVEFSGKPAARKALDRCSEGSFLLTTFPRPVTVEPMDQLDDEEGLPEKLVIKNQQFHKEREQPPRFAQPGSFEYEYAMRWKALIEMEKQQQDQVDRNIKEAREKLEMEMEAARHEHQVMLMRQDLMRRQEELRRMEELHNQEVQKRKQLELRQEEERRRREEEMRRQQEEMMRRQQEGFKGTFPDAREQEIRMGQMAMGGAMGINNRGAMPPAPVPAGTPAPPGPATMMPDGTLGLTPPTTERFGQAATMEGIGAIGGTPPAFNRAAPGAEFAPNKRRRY", "procedure,_shortened": "as §1"}, "RPS13": {"molecular_target": "RPS13 (UniProt P62277)", "procedure,_shortened": "as §1"}, "MRPL19": {"molecular_target": "MRPL19 (UniProt P49406)", "procedure,_shortened": "as §1"}, "YTHDC2": {"molecular_target": "T3, YTHDC2 (UniProt Q9H6S0)", "T3 sequence": "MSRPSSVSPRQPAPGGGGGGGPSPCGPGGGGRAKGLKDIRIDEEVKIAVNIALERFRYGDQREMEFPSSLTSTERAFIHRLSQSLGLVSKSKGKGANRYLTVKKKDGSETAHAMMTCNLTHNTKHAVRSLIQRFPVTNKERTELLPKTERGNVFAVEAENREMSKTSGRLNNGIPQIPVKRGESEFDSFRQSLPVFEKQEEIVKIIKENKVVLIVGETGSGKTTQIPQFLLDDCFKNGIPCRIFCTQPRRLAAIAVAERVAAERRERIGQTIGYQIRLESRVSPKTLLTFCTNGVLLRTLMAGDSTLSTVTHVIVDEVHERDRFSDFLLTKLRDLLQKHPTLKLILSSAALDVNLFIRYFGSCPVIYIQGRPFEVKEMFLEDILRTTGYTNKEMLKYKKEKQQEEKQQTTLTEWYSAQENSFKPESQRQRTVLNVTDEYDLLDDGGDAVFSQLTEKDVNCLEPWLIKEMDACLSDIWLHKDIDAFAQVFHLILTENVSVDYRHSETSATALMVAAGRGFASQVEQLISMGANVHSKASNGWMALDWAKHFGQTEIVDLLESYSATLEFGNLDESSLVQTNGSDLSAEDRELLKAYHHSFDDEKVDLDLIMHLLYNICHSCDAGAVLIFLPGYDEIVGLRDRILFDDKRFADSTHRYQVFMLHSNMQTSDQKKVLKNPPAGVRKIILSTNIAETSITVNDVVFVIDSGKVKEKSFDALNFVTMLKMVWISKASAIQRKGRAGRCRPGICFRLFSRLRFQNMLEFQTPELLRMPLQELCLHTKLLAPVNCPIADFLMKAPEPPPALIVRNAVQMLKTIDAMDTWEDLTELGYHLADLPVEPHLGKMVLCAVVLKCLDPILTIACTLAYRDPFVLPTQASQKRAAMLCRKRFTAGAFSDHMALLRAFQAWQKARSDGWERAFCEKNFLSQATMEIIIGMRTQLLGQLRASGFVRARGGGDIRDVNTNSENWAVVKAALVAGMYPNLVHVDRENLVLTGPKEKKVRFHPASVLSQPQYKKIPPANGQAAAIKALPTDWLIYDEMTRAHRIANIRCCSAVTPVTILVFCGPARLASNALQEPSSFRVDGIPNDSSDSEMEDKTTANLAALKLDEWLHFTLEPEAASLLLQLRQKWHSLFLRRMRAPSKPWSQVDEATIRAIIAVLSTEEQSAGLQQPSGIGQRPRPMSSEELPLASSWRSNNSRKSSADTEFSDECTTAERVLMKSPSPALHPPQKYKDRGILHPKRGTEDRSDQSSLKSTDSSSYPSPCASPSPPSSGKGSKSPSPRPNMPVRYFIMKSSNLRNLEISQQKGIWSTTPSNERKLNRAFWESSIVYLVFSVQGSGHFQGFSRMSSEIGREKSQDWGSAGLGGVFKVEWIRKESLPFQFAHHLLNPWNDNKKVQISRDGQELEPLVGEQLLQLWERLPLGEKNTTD", "procedure,_shortened": "as §1"}, "CNBP": {"molecular_target": "CNBP (UniProt P62633)", "sequence (P62633 whole entry)": "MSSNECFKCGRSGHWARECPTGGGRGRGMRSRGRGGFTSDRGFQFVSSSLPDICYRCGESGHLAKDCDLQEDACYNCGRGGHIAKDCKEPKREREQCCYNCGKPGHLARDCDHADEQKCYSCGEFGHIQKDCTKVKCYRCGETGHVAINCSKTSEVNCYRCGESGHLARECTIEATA", "procedure,_shortened": "as §1"}},
  "data": [
    {"sequence": "AAUAAA", "values": [
      {"measurement": "EC50", "setting": "ZGPAT", "value": 9600, "unit": "nM"},
      {"measurement": "EC50", "setting": "NONO", "value": 0.302, "unit": "nM"}
    ]},
    {"sequence": "CUGUCCU", "values": [
      {"measurement": "EC50", "setting": "RPS13", "value": 123, "unit": "nM"},
      {"measurement": "EC50", "setting": "MRPL19", "value": 136, "unit": "nM"},
      {"measurement": "EC50", "setting": "YTHDC2", "value": 2240, "unit": "nM"}
    ]},
    {"sequence": "UAUUUAU", "values": [
      {"measurement": "EC50", "setting": "CNBP", "value": 2240, "unit": "nM"}
    ]}
  ]
}
